Reference: article PMC3587840 (Nature, 2010)
Residue numbers refer to the chain shown, from its start. In names and notes the source's numbering stands. Each block holds one binder with its values, some of them ahead of it.

How the values were obtained:
SEMA4D_(ecto)(K395D) = molecular target: T1, SEMA4D_(ecto)(K395D) (human, UniProt Q92854 22-677, K395D); assay: SPR
T1 sequence: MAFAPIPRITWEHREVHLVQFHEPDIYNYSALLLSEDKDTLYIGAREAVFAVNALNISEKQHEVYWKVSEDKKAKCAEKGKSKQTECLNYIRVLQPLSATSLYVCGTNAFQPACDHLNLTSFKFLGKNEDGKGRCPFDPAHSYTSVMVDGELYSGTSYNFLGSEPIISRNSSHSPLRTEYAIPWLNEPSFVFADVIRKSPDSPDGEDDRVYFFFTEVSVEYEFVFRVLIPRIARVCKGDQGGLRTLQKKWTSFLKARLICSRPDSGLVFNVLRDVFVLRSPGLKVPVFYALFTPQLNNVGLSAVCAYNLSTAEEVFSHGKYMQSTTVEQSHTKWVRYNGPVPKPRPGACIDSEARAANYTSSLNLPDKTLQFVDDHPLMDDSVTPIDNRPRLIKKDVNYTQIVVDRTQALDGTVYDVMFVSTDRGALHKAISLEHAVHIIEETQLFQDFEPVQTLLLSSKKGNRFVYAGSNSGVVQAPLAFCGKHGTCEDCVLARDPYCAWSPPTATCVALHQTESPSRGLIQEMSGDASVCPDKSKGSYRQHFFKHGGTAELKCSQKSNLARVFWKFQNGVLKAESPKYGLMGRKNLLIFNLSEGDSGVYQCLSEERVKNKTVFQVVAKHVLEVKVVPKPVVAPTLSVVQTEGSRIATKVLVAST

[1] = molecular target: T2, human SEMA4D_(ecto), C-terminal His-tag (human, UniProt Q92854 22-677); assay: SPR
T2 sequence: T1 sequence with D374K

[2] = molecular target: T3, SEMA4D_(ecto)(F244N/F246S) (human, UniProt Q92854 22-677, F244N | F246S); assay: SPR
T3 sequence: T1 sequence with F223N, F225S, D374K

[3] = molecular target: T2, human SEMA4D_(ecto), C-terminal His-tag; assay: crystal structure
[4] = molecular target: T4, mouse PlxnA2_(1–4), C-terminal His-tag (mouse, UniProt P70207 35-703); assay: SPR
T4 sequence: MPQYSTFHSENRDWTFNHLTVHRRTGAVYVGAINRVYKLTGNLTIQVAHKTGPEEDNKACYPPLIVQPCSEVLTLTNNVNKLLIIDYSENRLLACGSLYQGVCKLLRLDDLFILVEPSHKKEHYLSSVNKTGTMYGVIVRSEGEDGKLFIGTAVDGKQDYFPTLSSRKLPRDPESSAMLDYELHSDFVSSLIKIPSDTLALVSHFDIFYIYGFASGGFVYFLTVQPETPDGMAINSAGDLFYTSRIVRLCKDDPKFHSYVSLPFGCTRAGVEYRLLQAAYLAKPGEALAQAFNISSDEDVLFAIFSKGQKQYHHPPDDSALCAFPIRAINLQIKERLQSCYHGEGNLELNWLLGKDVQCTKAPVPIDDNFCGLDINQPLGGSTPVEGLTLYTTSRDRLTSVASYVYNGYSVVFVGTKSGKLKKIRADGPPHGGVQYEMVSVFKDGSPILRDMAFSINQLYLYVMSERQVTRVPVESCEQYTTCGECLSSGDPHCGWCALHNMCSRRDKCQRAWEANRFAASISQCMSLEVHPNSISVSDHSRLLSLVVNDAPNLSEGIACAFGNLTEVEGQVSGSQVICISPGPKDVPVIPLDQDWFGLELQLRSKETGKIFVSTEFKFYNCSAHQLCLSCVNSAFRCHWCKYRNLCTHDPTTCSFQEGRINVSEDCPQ

PlxnA2_(1–4)(D193K) = PlxnA2_(1–4)(D193K) (mouse, UniProt P70207 35-703, D193K); assay: SPR

Kd [4]: 2.3 µM
B4: mouse Sema6A_(ecto), biotinylated at an engineered C-terminal tag (domain or fragment)
chain: GFPEDSEPISISHGNYTKQYPVFVGHKPGRNTTQRHRLDIQMIMIMNRTLYVAARDHIYTVDIDTSHTEEIYCSKKLTWKSRQADVDTCRMKGKHKDECHNFIKVLLKKNDDTLFVCGTNAFNPSCRNYRVDTLETFGDEFSGMARCPYDAKHANIALFADGKLYSATVTDFLAIDAVIYRSLGDSPTLRTVKHDSKWLKEPYFVQAVDYGDYIYFFFREIAVEYNTMGKVVFPRVAQVCKNDMGGSQRVLEKQWTSFLKARLNCSVPGDSHFYFNILQAVTDVIRINGRDVVLATFSTPYNSIPGSAVCAYDMLDIANVFTGRFKEQKSPDSTWTPVPDERVPKPRPGCCAGSSSLEKYATSNEFPDDTLNFIKTHPLMDEAVPSIINRPWFLRTMVRYRLTKIAVDNAAGPYQNHTVVFLGSEKGIILKFLARIGSSGFLNGSLFLEEMNVYNPEKCSYDGVEDKRIMGMQLDRASGSLYVAFSTCVIKVPLGRCERHGKCKKTCIASRDPYCGWVRESGSCAHLSPLSRLTFEQDIERGNTDGLGDCHNS
modifications: biotin on the engineered C-terminal tag (enzymatic)

fold weaker binding than wild type (PlxnA2_(1–4)(D193K)): > 9 fold
B5: mouse Sema6A_(ecto), C-terminal His-tag (domain or fragment)
chain: B4 chain

binding result [4]: binds
B6: Sema6A_(ecto)(I322E), coupled to the chip (domain or fragment, mouse, UniProt O35464 19-571, looked up)
chain: B4 chain with I304E
modifications: biotin on the engineered C-terminal tag (enzymatic)

Further lines, the binder ahead of its results:

B1: PLXNB1_(1–2)(D139K) (domain or fragment)
chain: LQPLPPTAFTPNGTYLQHLARDPTSGTLYLGATNFLFQLSPGLQLEATVSTGPVLDSRDCLPPVMPDECPQAQPTNNPNQLLLVSPGALVVCGSVHQGVCEQRRLGQLEQLLLRPERPGKTQYVAANDPAVSTVGLVAQGLAGEPLLFVGRGYTSRGVGGGIPPITTRALWPPDPQAAFSYEETAKLAVGRLSEYSHHFVSAFARGASAYFLFLRRDLQAQSRAFRAYVSRVCLRDQHYYSYVELPLACEGGRYGLIQAAAVATSREVAHGEVLFAAFSSAAPPTVGRPPSAAAGASGASALCAFPLDEVDRLANRTRDACYTREGRAEDGTEVAYIEYDVNSDCAQLPVDTLDAYPCGSDHTPSPMASRVPLEATPILEWPGIQLTAVAVTMEDGHTIAFLGDSQGQLHRVYLGPGSDGHPYSTQSIQQGSAVSRDLTFDGTFEHLYVMTQSTLLKVPVASCAQHLDCASCLAHRDPYCGWCVLLGRCSRRSECSRGQGPEQWLWSFQPELGCLQ
binding result (SEMA4D_(ecto)(K395D)): binds

B2: human PLXNB1_(1–2), biotinylated at an engineered C-terminal tag (domain or fragment)
chain: B1 chain with K120D
modifications: biotin on the engineered C-terminal tag (enzymatic)
binding result [1]: binds | Kd [2]: 5.5 µM

B3: human PLXNB1_(1–2), C-terminal His-tag (domain or fragment)
chain: B1 chain with K120D
binding result [3]: binds
